# Test results as given in patent publication US20260071233A1.
# Target: Recombinant rat IFN-γ (rat) (UniProt P01581)
# UniProt P01581, sequence (P01581 23-156 limits assumed): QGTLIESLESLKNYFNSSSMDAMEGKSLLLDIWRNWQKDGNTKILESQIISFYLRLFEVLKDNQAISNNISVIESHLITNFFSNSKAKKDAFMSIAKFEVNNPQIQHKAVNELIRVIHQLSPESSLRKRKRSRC
substance,measurement,value
Recombinant B8R protein,percent neutralization,> 50%
